Source: publication PMC3616908

B1: N-terminal Rad9 CAD region (yeast two-hybrid fusion) [S. cerevisiae] / Chk1 (yeast two-hybrid fusion) [S. cerevisiae] (parent)
chain 1: MSGQLVQWKSSPDRVTQSAIKEALHSPLADGDMNEMNVPVDPLENKVNSTNIIEGSPKANPNPVKFMNTSEIFQKSLGLLDESPRHDDELNIEVGDNDRPNANILHNERTPDLDRIANFFKSNRTPGKENLLTKYQSSDLEDTPLMLRKKMTFQTPTDPLEQKTFKKLKSDTGFCYYGEQNDGEENASLEVTEADATFVQMAERSADNYDCALEGIVTPKRYKDELSKSGG
chain 2: MSLSQVSPLPHIKDVVLGDTVGQGAFACVKNAHLQMDPSIILAVKFIHVPTCKKMGLSDKDITKEVVLQSKCSKHPNVLRLIDCNVSKEYMWIILEMADGGDLFDKIEPDVGVDSDVAQFYFQQLVSAINYLHVECGVAHRDIKPENILLDKNGNLKLADFGLASQFRRKDGTLRVSMDQRGSPPYMAPEVLYSEEGYYADRTDIWSIGILLFVLLTGQTPWELPSLENEDFVFFIENDGNLNWGPWSKIEFTHLNLLRKILQPDPNKRVTLKALKLHPWVLRRASFSGDDGLCNDPELLAKKLFSHLKVSLSNENYLKFTQDTNSNNRYISTQPIGNELAELEHDSMHFQTVSNTQRAFTSYDSNTNYNSGTGMTQEAKWTQFISYDIAALQFHSDENDCNELVKRHLQFNPNKLTKFYTLQPMDVLLPILEKALNLSQIRVKPDLFANFERLCELLGYDNVFPLIINIKTKSNGGYQLCGSISIIKIEEELKSVGFERKTGDPLEWRRLFKKISTICRDIILIPN

Variants of: B1
Assay: yeast two-hybrid (β-galactosidase activity)
Conditions: with Chk1 (yeast two-hybrid fusion) [S. cerevisiae]; parent: 1; read off a plot

| response | Variant |
| --- | --- |
| 0.18 AU | chain 1 S11A S26A S56A T110A T125A T143A T155A T218A |
| 0.14 AU | chain 1 S11A S56A S83A T110A T125A T143A T155A T218A |
| 0.59 AU | chain 1 S11A S26A S56A S83A T110A T143A T155A T218A |
| 0.2 AU | chain 1 S11A S26A S56A S83A T125A T143A T155A T218A |
| 0.22 AU | chain 1 S26A S56A S83A T110A T125A T143A T155A T218A |
| 0.18 AU | chain 1 S11A S26A S83A T110A T125A T143A T155A T218A |

Second part, the variant before the results:

| Variant | response |
| --- | --- |
| chain 1 S11A S26A S56A S83A T110A T125A T143A T155A | 0.15 AU |
| chain 1 S11A S26A S56A S83A T110A T125A T143A T218A | 0.28 AU |
| chain 1 S11A S26A S56A S83A T110A T125A T155A T218A | 0.8 AU |
| chain 1 S11A S26A S56A S83A T110A T125A T143A T155A T218A | 0.07 AU |
